Like-named read-outs stand apart in the source and are kept apart here.
Legend:
Cit1 = test: steady-state initial rates, Hill equation fit; format: biochemical, Streptantibioticus cattleyicolor; conditions: read-out: K0.5
Cit2 = test: steady-state initial rates, Hill equation fit; format: biochemical, Streptantibioticus cattleyicolor; conditions: read-out: K0.5
ACS (S. cattleya) = ACS (S. cattleya) (Streptantibioticus cattleyicolor, UniProt F8K1P4); format: biochemical
AckA (S. cattleya) = AckA (S. cattleya) (Streptantibioticus cattleyicolor, UniProt G8X369); format: biochemical
GltA = GltA (Escherichia coli, UniProt P0ABH7); test: steady-state initial rates, Hill equation fit; format: biochemical; conditions: read-out: K0.5
Sequence of GltA (P0ABH7 whole entry): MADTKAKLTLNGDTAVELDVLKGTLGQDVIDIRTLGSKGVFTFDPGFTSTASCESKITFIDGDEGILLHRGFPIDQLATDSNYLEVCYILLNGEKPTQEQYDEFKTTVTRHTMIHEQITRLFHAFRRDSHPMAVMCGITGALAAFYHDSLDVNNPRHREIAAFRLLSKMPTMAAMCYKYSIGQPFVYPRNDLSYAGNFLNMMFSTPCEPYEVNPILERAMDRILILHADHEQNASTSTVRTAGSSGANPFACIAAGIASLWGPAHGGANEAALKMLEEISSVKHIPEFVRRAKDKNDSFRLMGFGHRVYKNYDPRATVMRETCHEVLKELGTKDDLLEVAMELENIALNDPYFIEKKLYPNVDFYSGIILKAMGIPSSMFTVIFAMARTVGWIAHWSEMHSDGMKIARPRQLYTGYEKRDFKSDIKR

[1] = tested on: CC(=O)SCCNC(=O)CCNC(=O)[C@H](O)C(C)(C)COP(=O)(O)OP(=O)(O)OC[C@H]1O[C@@H](n2cnc3c(N)ncnc32)[C@H](O)[C@@H]1OP(=O)(O)O; test: steady-state initial rates, Hill equation fit; format: biochemical, Escherichia coli
purified protein = substrate: CC(=O)O; test: purified protein
[2] = substrate: CC(=O)SCCNC(=O)CCNC(=O)[C@H](O)C(C)(C)COP(=O)(O)OP(=O)(O)OC[C@H]1O[C@@H](n2cnc3c(N)ncnc32)[C@H](O)[C@@H]1OP(=O)(O)O; test: steady-state initial rates, Hill equation fit; format: biochemical, Streptomyces coelicolor
[3] = substrate: CC(C)(COP(=O)(O)OP(=O)(O)OC[C@H]1O[C@@H](n2cnc3c(N)ncnc32)[C@H](O)[C@@H]1OP(=O)(O)O)[C@@H](O)C(=O)NCCC(=O)NCCSC(=O)CF; test: steady-state initial rates, Hill equation fit; format: biochemical, Streptomyces coelicolor

O=C(O)CC(=O)C(=O)O [Oxaloacetate]
Km (Cit1): 130 ± 20 µM | Km (Cit2): 3.8 ± 0.4 µM

O=C(O)CF [compound 6, Fluoroacetate]
Km (ACS (S. cattleya)): 52000 µM | Km (AckA (S. cattleya)): 5700 µM

CC(C)(COP(=O)(O)OP(=O)(O)OC[C@H]1O[C@@H](n2cnc3c(N)ncnc32)[C@H](O)[C@@H]1OP(=O)(O)O)[C@@H](O)C(=O)NCCC(=O)NCCSC(=O)CF [compound 9, Fluoroacetyl-CoA]
Km (Cit1): 16 ± 4 µM | Km (GltA): 5.1 ± 0.3 µM | Km (Cit2): 0.98 ± 0.05 µM

CC(=O)SCCNC(=O)CCNC(=O)[C@H](O)C(C)(C)COP(=O)(O)OP(=O)(O)OC[C@H]1O[C@@H](n2cnc3c(N)ncnc32)[C@H](O)[C@@H]1OP(=O)(O)O [compound 10, Acetyl-CoA]
Km (Cit1): 15 ± 2 µM | Km (Cit2): 4.9 ± 0.4 µM

GltA (Escherichia coli K-12)
K0.5 [1]: 170 ± 60 µM | kcat [1]: 80 ± 10 s⁻¹ | kcat/Km [1]: 500000 ± 200000 M⁻¹ s⁻¹

B1: AckA (E. coli) (Escherichia coli K-12) (protein)
chain: MSSKLVLVLNCGSSSLKFAIIDAVNGEEYLSGLAECFHLPEARIKWKMDGNKQEAALGAGAAHSEALNFIVNTILAQKPELSAQLTAIGHRIVHGGEKYTSSVVIDESVIQGIKDAASFAPLHNPAHLIGIEEALKSFPQLKDKNVAVFDTAFHQTMPEESYLYALPYNLYKEHGIRRYGAHGTSHFYVTQEAAKMLNKPVEELNIITCHLGNGGSVSAIRNGKCVDTSMGLTPLEGLVMGTRSGDIDPAIIFHLHDTLGMSVDAINKLLTKESGLLGLTEVTSDCRYVEDNYATKEDAKRAMDVYCHRLAKYIGAYTALMDGRLDAVVFTGGIGENAAMVRELSLGKLGVLGFEVDHERNLAARFGKSGFINKEGTRPAVVIPTNEELVIAQDASRLTA
Km (purified protein): (2.7 ± 0.2) × 10^4 μM | kcat (purified protein): 1340 s⁻¹ | kcat/Km (purified protein): 50000 M⁻¹ s⁻¹

B2: CitA (Streptomyces coelicolor A3(2)) (protein)
chain: MSDNSVVLRYGDGEYTYPVIDSTVGDKGFDIGKLRAQTGLVTLDSGYGNTAAYKSAITYLDGEAGILRYRGYPIEQLAERSSFVEVAYLLINGELPTVDELSAFKGEITQHTLLHEDVKNFYKGFPRDAHPMAMLSSVVSALSTFYQDSHNPFDERQRNLSTIRLLAKLPTIAAYAYKKSIGHPFVYPANNLGYVENFLRMTFSVPAQEYELDPTVVAALDKLLILHADHEQNCSTSTVRLVGSSQANMFASISAGINALWGPLHGGANQSVLEMLEGIRDAGGDVDSFIRKVKNKEDGVRLMGFGHRVYKNFDPRAKIIKAAAHDVLSALGKSDELLDIALKLEEHALSDDYFVSRSLYPNVDFYTGLIYRAMGFPTEMFTVLFALGRLPGWIAQWHEMIKEPGSRIGRPRQIYTGVVERDFVPVEER
K0.5 [2]: 47 ± 2 µM | kcat [2]: 17.9 ± 0.4 s⁻¹ | kcat/Km [2]: 380000 ± 10000 M⁻¹ s⁻¹ | K0.5 [3]: 15.4 ± 0.8 µM | kcat/Km [3]: 126000 ± 8000 M⁻¹ s⁻¹
